Assay results reported in PMC9114487, “Generation of a High-Affinity Nanobody Against CD147 for Tumor Targeting and Therapeutic Efficacy Through Conjugating Doxorubicin” (Frontiers in Immunology, 2022).
Positions count from the first letter of the chain named.

B1: anti-CD147 nanobody 11-1 (VHH)
VHH: QVQLQESGGGSVQAGGSLRLSCAVSGYTYSSCSMDWYRQAPGKERELVSSISSGGNTYYEDSVKGRFTISQDNAKNTVYLQMNSLKPEDTASYYCKMWCPGNKSYWGQGTQVTVSS
notes: Selected by phage display from an immune VHH library; The immunised animal is called an alpaca in the methods, a camel in the results and a Bactrian camel in the discussion; About 13 kDa by SDS-PAGE; Surmise: pET-15b usually adds an N-terminal His tag; also called Nb 11-1; anti-CD147-VHH Nb (11-1); source: E. coli BL21(DE3), pET-15b, purified (His-Trap HP column)
B2: V-5 (VHH)
VHH: QVQLQESGGGSVQAGETLTLSCTASGYTFSSSNCMGWFRQAPGQEREDVAIISVRGGITYYADSVKGRFTISRDNAKNTLSLQMNSLKPEDTAVYYCAADNPKYRDLYNAHCNWSYRYWGQGTQVTVSS
B3: V-15 (VHH)
VHH: B2 VHH with V12A, E16G, T17S, T19R, T23A, Q44K, D48G, N109D
B4: V-20 (VHH)
VHH: B2 VHH with E16G, T17S, T19R, T23A, A62V, S86N, Y108H, N109G, A110G
B5: V-7 (VHH)
VHH: B2 VHH with E16G, T17S, T19R, T23A, Q44K, N75S, D106A, Y108S, N109D
B6: V-9 (VHH)
VHH: B2 VHH with E16G, T17S, T19R, T23A, A62V, S86N, N109D
B7: V-21 (VHH)
VHH: B2 VHH with E16G, T17S, T19R, T23A, Q44K, N75S, P89S, D106Q, Y108S
B8: V-18 (VHH)
VHH: B2 VHH with E16G, T17S, T19R, T23A, Q44K, A62T, S86N, E90D, N109G
B9: V-1 (VHH)
VHH: QVQLQESGGGSVQAGGSLRLSCRASGYTFSRHCMGWFRQGPGKEREVVATIYTFNGRTYYADSVKGRFTVSQDNAQNSLYLQMDSLKPEDTAMYYCAAARIGWTSVSGSCPRMGDVNKYWGQGTQVTVSS
B10: V-3 (VHH)
VHH: B9 VHH with S17T, A24V, Y59S, V70I, M93T, V116E
B11: V-19 (VHH)
VHH: B9 VHH with S25P, K43E, Y59T, V70I, V106A, V116E
B12: V-13 (VHH)
VHH: B9 VHH with R31E, V70I
B13: V-2 (VHH)
VHH: B9 VHH with R57H, V70I, A75P, Y80T
B14: V-14 (VHH)
VHH: B9 VHH with V70I
B15: V-11 (VHH)
VHH: B9 VHH with V47L, T50S, V70I, V116E
B16: V-23 (VHH)
VHH: B9 VHH with R31E, V47L, T50S, V70I
B17: V-22 (VHH)
VHH: B9 VHH with G40T, R57H, V70I
B18: V-4 (VHH)
VHH: B1 VHH with A23S, Y27G, Y29F, Y37F, E44V, N76T, S92M, W98F, G101W
B19: V-17 (VHH)
VHH: B1 VHH with Q81R, S92I, G101W
B20: V-10 (VHH)
VHH: B1 VHH with A23S, Y27S, Y29F, Y37F, E46G, S92M
B21: V-24 (VHH)
VHH: QVQLQESGGGLVLPGGSLRLSCAAFGFIFSDFDMSWVRQAPGKGLEWVSSISRYGRTSSADSVKGRFTISRDNAKNTLYLQMHSLKTDDTAVYYCATGNFCSGGRCYIDRGQGTQVTVSS
B22: V-27 (VHH)
VHH: B21 VHH with L13Q, D31N, F32Y, H83N
B23: V-28 (VHH)
VHH: B21 VHH with L11S, L13Q, P14A, D31N, F32Y, H83N, A96T, I108S, D109N
B24: V-29 (VHH)
VHH: B21 VHH with L13Q, D31N, F32Y, L45F, S59N, S62A, H83N, D109N
B25: V-25 (VHH)
VHH: B21 VHH with L13Q, D31N, Q81E, H83N, T87S, D88A, D109N
B26: V-26 (VHH)
VHH: B21 VHH with L11S, L13Q, P14A, D31N, F32Y, L45F, S59N, S62A, H83N, D109N
B27: EGFP-VHH fusion protein EGFP-11-1 (VHH)
VHH: B1 VHH
notes: as the VHH of m1; About 40 kDa by SDS-PAGE; also called 11-1-EGFP; EGFP-11-1 Nbs; source: E. coli BL21(DE3), pET-25b, purified (His-Trap HP column); not shown: EGFP, C-terminal, kept

Each binder was assayed against C78 (C-terminal ecto-domain protein of CD147) (assay: BLI; ForteBio Octet; biotin-labeled CD147 or C78 immobilized on the sensors (200 s); Nb 11-1 at different concentrations in PBST, 200 s; PBST 100 s; room temperature, shaking 1,000 rpm). Details: not given.

Binder	Kd [nM]	koff [s⁻¹]	kon [M⁻¹ s⁻¹]
B1	1.78	0.000104	58200

The binders below were run against T1, ecto-domain protein of CD147 (Homo sapiens (assumed), isoform 2, UniProt P35613-2, biotin (Sulfo-NHS-LC-Biotin) in the BLI only) (assay: not given). Details: not given.
Target sequence in this assay (P35613 other isoform, or with tags, fused parts or gaps): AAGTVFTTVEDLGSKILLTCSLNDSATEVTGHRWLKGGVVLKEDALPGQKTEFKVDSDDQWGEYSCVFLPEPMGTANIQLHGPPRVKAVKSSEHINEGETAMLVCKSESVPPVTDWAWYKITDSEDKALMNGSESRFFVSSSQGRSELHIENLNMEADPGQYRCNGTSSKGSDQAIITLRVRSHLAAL

Binder	binding result
B2	binds
B3	binds
B4	binds
B5	binds
B6	binds
B7	binds
B8	binds
B9	binds
B10	binds
B11	binds
B12	binds
B13	binds
B14	binds
B15	binds
B16	binds
B17	binds
B18	binds
B19	binds
B20	binds
B21	binds
B22	binds
B23	binds
B24	binds
B25	binds
B26	binds

The binders below were run against T1, ecto-domain protein of CD147 (assay: BLI; ForteBio Octet; biotin-labeled CD147 or C78 immobilized on the sensors (200 s); Nb 11-1 at different concentrations in PBST, 200 s; PBST 100 s; room temperature, shaking 1,000 rpm). Details: both partners purified.
Target sequence in this assay (P35613 whole entry, looked up, tested part not stated, canonical isoform): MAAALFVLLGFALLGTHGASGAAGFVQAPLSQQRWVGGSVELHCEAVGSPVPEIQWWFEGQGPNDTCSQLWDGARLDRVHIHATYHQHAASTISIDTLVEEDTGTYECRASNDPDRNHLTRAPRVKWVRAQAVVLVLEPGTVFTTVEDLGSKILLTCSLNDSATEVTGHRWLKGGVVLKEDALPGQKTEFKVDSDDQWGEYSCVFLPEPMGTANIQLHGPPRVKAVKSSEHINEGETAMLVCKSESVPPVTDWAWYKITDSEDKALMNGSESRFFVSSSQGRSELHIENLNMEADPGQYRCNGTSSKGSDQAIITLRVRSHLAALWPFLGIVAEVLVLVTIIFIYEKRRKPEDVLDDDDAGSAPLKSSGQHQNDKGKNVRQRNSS

Binder	Kd [nM]	koff [s⁻¹]	kon [M⁻¹ s⁻¹]
B1	0.636	2.2e-05	34600

These binders were tested against T1, ecto-domain protein of CD147 (assay: BLI; kinetics between CD147 and EGFP-11-1 (Figure 3F); who was immobilised is not told for this pair). Details: both partners purified.
Target sequence in this assay (P35613 whole entry, looked up, tested part not stated, canonical isoform): as above

Binder	Kd [nM]
B27	11.1
